Reference: PMC2574583 (2008)
Like-named read-outs stand apart in the source and are kept apart here. Ends that are not written are not given here. * marks the point of attachment. Dansyl = CN(C)c1cccc2c(S(=O)(=O)*)cccc12

Assays:
[1] = target: T1, BACH1-P phosphopeptide (Homo sapiens, UniProt Q9BX63, also: phosphoserine (position not given here)); assay: ITC
T1 chain: SRSTSPTFNK

[2] = target: T1, BACH1-P phosphopeptide; assay: ITC
[3] = target: T2, bBACH1-P phosphopeptide (Homo sapiens, UniProt Q9BX63, also: phosphoserine (position not given here), biotin (position not given here)); assay: SPR steady-state
T2 chain: SRSTSPTFNK

[4] = target: T1, BACH1-P phosphopeptide; assay: ITC
[5] = target: T2, bBACH1-P phosphopeptide; assay: ITC
[6] = target: T2, bBACH1-P phosphopeptide; assay: SPR steady-state
[7] = target: T1, BACH1-P phosphopeptide; assay: ITC
[8] = target: T2, bBACH1-P phosphopeptide; assay: SPR steady-state
[9] = target: T2, bBACH1-P phosphopeptide; assay: SPR steady-state
[10] = target: T2, bBACH1-P phosphopeptide; assay: SPR kinetics
[11] = target: T3, dBACH1-P phosphopeptide (Homo sapiens, UniProt Q9BX63, also: phosphoserine (position not given here)); assay: stopped-flow fluorescence
T3 chain: Dansyl-SRSTSPTFNK

[12] = target: T3, dBACH1-P phosphopeptide; assay: fluorescence anisotropy
[13] = target: T1, BACH1-P phosphopeptide; assay: ITC
[14] = target: T4, CtIP phosphopeptide phosphopeptide (Homo sapiens, UniProt Q99708, also: phosphoserine (position not given here)); assay: SPR
T4 chain: PTRVSSPVFGAT

[15] = target: T2, bBACH1-P phosphopeptide; assay: SPR kinetics
[16] = target: T3, dBACH1-P phosphopeptide; assay: stopped-flow fluorescence

Kd [1]: 490 nM
Kd [2]: 280 nM
Kd [3]: 350 nM
Kd [4]: 330 nM
Kd [5]: 230 nM
Kd [6]: 560 nM
Kd [7]: 410 nM
Kd [8]: 260 nM
Kd [9]: 530 nM
Kd [10]: 430 nM
Kd [11]: 200 nM
Kd [12]: 180 nM
Kd [13]: 500 nM
Kd [14]: 1300 nM
Kd [15]: 90 nM
Kd [16]: 110 nM
B1: BRCA1-BRCT 1646-1859 (protein)
chain: VNKRMSMVVSGLTPEEFMLVYKFARKHHITLTNLITEETTHVVMKTDAEFVCERTLKYFLGIAGGKWVVSYFWVTQSIKERKMLNEHDFEVRGDVVNGRNHQGPKRARESQDRKIFRGLEICCYGPFTNMPTDQLEWMVQLCGASVVKELSSFTLGTGVHPIVVVQPDAWTEDNGFHAIGQMCEAPVVTREWVLDSVALYQCQELDTYLIPQIP
